Data published in paper PMC5716252, “Heterologous expression, purification and function of the extracellular domain of human RANK” (BMC Biotechnology, 2017).

Target: T1, RANK-N, soluble form of the extracellular domain of human RANK (human, UniProt Q9Y6Q6 29-213, N-glycosylated (28 kDa band shifts to about 21 kDa with PNGase F); predicted sites Asn 105 and Asn 174, not verified)
T1 construct: Codon-optimised gene cloned into pPIC9K cut with XhoI and NotI; no tag is named; also called recombinant RANK-N
T1 sequence (looked up): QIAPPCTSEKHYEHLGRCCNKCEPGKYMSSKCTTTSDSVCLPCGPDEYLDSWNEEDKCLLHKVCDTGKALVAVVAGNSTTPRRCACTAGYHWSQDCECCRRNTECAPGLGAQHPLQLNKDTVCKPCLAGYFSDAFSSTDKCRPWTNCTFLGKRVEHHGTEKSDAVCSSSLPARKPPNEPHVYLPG
Test: SPR; Biacore T100; RANKL amine-coupled to a CM5 chip; RANK-N (32.5 to 1000 nM) injected at 30 μl/min, 25 °C, contact 210 s, dissociation 400 s; running buffer 3 mM EDTA, 150 mM NaCl, 10 mM HEPES, 0.05% Surfactant P20; steady-state responses fit to the Hill equation
Conditions: both partners purified

B1: RANKL (R&D Systems, 462-TEC-010/CF) (ligand, UniProt O35235 139-316, looked up)
chain: FSGAPAMMEGSWLDVAQRGKPEAQPFAHLTINAASIPSGSHKVTLSSWYHDRGWAKISNMTLSNGKLRVNQDGFYYLYANICFRHHETSGSVPTDYLQLMVYVVKTSIKIPSSHNLMKGGSTKNWSGNSEFHFYSINVGGFFKLRAGEEISIQVSNPSLLDPDQDATYFGAFKVQDID
notes: RANKL, recombinant protein bought from R&D Systems, catalogue 462-TEC-010/CF; As far as I recall, catalogue 462-TEC is R&D's recombinant mouse TRANCE/RANKL (soluble extracellular part, carrier-free); source: bought: R&D Systems (462-TEC-010/CF)
Kd: 2620 nM
